Measured values taken from publication PMC2680549 (Nature structural & molecular biology, 2008).
Blank lines part the entries; values can stand above or below the binder they belong to.

Key:
AUC [1] = molecular target: the molecule itself; test: AUC
AUC [2] = molecular target: the molecule itself; test: AUC; remark: listed apart in the source
[3] = molecular target: Hsc70 nucleotide binding domain (human Hsc70 1-381) (human, UniProt P11142 1-381); test: pull-down
Sequence of Hsc70 nucleotide binding domain (human Hsc70 1-381) (P11142 1-381): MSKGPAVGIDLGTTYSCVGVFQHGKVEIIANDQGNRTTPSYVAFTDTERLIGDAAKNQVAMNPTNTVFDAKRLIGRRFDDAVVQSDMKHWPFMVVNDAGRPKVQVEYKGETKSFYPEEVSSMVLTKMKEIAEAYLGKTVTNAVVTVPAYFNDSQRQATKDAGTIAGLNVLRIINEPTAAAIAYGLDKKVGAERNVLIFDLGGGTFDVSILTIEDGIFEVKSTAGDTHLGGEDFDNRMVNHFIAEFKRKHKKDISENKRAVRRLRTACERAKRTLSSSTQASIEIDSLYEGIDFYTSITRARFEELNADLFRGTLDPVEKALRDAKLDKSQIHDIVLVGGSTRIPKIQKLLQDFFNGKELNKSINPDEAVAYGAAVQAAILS

B1: Near full-length murine Bag2 (Bag2 21-210) (domain or fragment, mouse, UniProt Q91YN9 21-210, looked up)
chain: MADRSSRLLESLDQLELRVEALRDAATAVEQEKEILLEMIHSIQNSQDMRQISDGEREELNLTANRLMGRTLTVEVSVETIRNPQQEESLKHATRIIDEVVSKFLDDLGNAKSHLMSLYSACSSEVPPGPVDQKFQSIVIGCALEDQKKIKRRLETLLRNIDNSDKAIKLLEHAKGAGSKSLQNTDGKFN
stoichiometry N (AUC [1]): ≥ 4

B2: Mouse Bag2-BNB (murine Bag2 107-189) (domain or fragment, UniProt Q91YN9 107-189, looked up)
chain: EESLKHATRIIDEVVSKFLDDLGNAKSHLMSLYSACSSEVPPGPVDQKFQSIVIGCALEDQKKIKRRLETLLRNIDNSDKAIK
Kd (AUC [2]): 4.5 ± 2 µM

binding result [3]: binds
B3: GST-fused full-length human Bag2, wild type (natural protein, UniProt O95816 1-211, looked up)
chain: MAQAKINAKANEGRFCRSSSMADRSSRLLESLDQLELRVEALREAATAVEQEKEILLEMIHSIQNSQDMRQISDGEREELNLTANRLMGRTLTVEVSVETIRNPQQQESLKHATRIIDEVVNKFLDDLGNAKSHLMSLYSACSSEVPHGPVDQKFQSIVIGCALEDQKKIKRRLETLLRNIENSDKAIKLLEHSKGAGSKTLQQNAESRFN
